These results are taken from US20250368744A1 (CONCEPT TO MEDICINE BIOTECH, published 2025).

The labels stand for the following.
T1: human CCR4 (human, UniProt P51679 1-360)
T1 construct: whole, on cells; also called hCCR4
T1 sequence (looked up): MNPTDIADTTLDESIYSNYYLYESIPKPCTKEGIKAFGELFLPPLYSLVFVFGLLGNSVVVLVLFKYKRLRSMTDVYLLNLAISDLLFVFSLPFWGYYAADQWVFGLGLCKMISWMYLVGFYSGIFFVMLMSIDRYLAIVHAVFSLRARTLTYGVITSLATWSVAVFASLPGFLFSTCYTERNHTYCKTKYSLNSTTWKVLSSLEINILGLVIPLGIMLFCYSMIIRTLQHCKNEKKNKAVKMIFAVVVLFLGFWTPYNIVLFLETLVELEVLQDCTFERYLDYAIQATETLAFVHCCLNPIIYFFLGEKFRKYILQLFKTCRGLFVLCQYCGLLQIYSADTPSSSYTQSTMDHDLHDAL

B1: 195H8D10 (antibody, V domains shown)
VH: EVQLVGSGGGLVQPKGSLKLSCAASGFNFNTYVMNWVRQAPGKGLEWVARIRTKSNNYATYYADSVKDRFTISRDDSESKLYLQMNNLKTEDTAMYYCVSGTITRLGGGLDYWGQGTSVTVSS
VL: DIVMTQAAPSVPVTPGESVSISCRSSKRLLHSNGNTYLYWFLQRPGQSPQLLIYRMSNLASGVPDRFSGSGSGTAFTLRISRVEAEDVGVYYCMQHLEYPFTFGGGTKLEIK
notes: tested as chimeric mAb; also called 195H8D10-C
B2: 195H8D10-C2 (antibody, V domains shown)
VH: B1 VH
VL: B1 VL with G34A
notes: also called 195H8D10 VH with 195H8D10 VL NG-NA
B3: Hu195H8D10-1 NG-NA (antibody, V domains shown)
VH: EVQLVESGGGLVQPGGSLRLSCAASGFNFNTYVMNWVRQAPGKGLEWVGRIRTKSNNYATYYADSVKDRFTISRDDSKNSLYLQMNSLKTEDTAVYYCARGTITRLGGGLDYWGQGTLVTVSS
VL: DIVMTQSPLSLPVTPGEPASISCRSSKRLLHSNANTYLYWYLQKPGQSPQLLIYRMSNLASGVPDRFSGSGSGTDFTLKISRVEAEDVGVYYCMQHLEYPFTFGGGTKLEIK
notes: humanized, PTM site removed
B4: Hu200C9B9-3 NG-NA (antibody, V domains shown)
VH: B3 VH with N28S, Y61F, A63V, G108A
VL: B3 VL with R28S, D75A
notes: humanized, PTM site removed
B5: Hu195H8D10-7 NG-NA (antibody, V domains shown)
VH: B3 VH with G49A, A99V, R100S
VL: B3 VL with D75A
notes: humanized, PTM site removed
B6: 96G3-1F10 (antibody, V domains shown)
VH: DLQLKESGPGLVKPSQSLSLTCSVTGYSITSGYYWNWIRQFPGNKLEWMGFISYDGNNNYNPSLKNRISITRDTSKNQFFLNVKSVTTEDTATYYCSRATGLRKAWFAYWGQGTLVTVSA
VL: DIQMTQSSSYLSVSLGGRVTITCKASDHINNWLAWYQQKPGNAPRLLISDTTSLGTGVPSRFRGSGSGKDYTLSITSLQTEDVATYFCQQYWSYPYTFGGGTKLEIR
notes: tested as chimeric mAb
B7: 86D4E12A5 (antibody, V domains shown)
VH: DLQLKESGPGLVKPSQSLSLTCSVTGYSITSGYYWNWIRQLPGNKLEWMGYISFDGSNNYNPSLKTRISITRDTSKNQFFLKLNSVTSEDTATYFCARLRGLLLGHFDVWGTGTTVTVSS
VL: DVQMTQSSSYLSVPLGGRVTITCKASDHINNRLAWYQQKPGNAPRLLISGATKLETGIPSRFRGSGSGKDYTLSIFSLQTEDVATYYCQQYWSTSYTFGGGTKLELR
notes: tested as chimeric mAb
B8: 187B5F10 (antibody, V domains shown)
VH: B1 VH with L110M
VL: B1 VL
notes: tested as chimeric mAb
B9: 101D5G10G4 (antibody, V domains shown)
VH: B6 VH with F51Y, V83L, K84N
VL: B6 VL
notes: tested as chimeric mAb
B10: 99D1-1E11 (antibody, V domains shown)
VH: B7 VH with L41F, F54Y, F95Y, A97V, L99E
VL: B7 VL with V2I, P14A
notes: tested as chimeric mAb
B11: 84D1-2H3 (antibody, V domains shown)
VH: EVQLQQSGPVLVKPGASVKMSCKASGYTFTDYYVNWVKKSHGKSPEWIGIIKPYNGGTSYNQKFKGKATLTVDKSSSTVYMELNSLTSEDSAVYHCARFAYSRNPYAMDYWGQGTSVTVSS
VL: DVLLTQTPLSLPVSLGDQASISCRSSQSIVHSTGNTYLEWYLQKPGQSPKVLIYKVSTRFSGVPDRFSGSGSGTDFTLKISRVEAEDLGVYYCFQGSHVPPTFGGGTKLEIK
notes: tested as chimeric mAb of the mouse hybridoma clone
B12: 200C9B9-C2 (antibody, V domains shown)
VH: B1 VH with G6E, N28S, E46N, Y61F, A63V, S79N, K80M, T90I, M95I, G108A
VL: B1 VL with R28S, G34A
notes: also called 200C9B9 VH with 200C9B9 VL NG-NA

Positions count from the first letter of the chain named.

T2 sequence (P51685 whole entry): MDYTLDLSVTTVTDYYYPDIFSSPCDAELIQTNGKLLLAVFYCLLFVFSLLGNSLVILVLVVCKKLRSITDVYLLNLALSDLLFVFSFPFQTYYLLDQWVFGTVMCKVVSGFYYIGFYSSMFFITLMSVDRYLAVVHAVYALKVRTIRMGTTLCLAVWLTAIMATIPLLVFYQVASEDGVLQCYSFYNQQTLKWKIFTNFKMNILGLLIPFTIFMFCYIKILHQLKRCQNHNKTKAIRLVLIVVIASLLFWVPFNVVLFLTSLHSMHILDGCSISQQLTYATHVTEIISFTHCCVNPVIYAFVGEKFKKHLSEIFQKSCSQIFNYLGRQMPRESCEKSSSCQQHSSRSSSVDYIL
T3 sequence (G7NYJ2 entry or part of it): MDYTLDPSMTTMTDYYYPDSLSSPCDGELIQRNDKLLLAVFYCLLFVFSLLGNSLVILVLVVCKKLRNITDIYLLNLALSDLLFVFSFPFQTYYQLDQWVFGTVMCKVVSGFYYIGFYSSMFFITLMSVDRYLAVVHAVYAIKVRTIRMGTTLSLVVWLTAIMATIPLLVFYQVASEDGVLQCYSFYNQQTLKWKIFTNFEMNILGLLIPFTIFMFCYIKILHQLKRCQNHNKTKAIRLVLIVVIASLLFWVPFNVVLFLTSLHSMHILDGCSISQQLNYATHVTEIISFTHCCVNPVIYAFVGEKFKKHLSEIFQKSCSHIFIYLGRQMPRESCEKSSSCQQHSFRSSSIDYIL

The first assay concerns the target T2, human C-C motif chemokine receptor 8 (CCR8) (human, UniProt P51685 1-355). Put plainly: cell-based or functional assay.
As to B1, the “IC50, hCCL1-induced beta-arrestin recruitment (RLU), CHO-K1 hCCR8 cells” value was found to be 0.55 nM.

B2: the “IC50, hCCL1-induced beta-arrestin recruitment (RLU), CHO-K1 hCCR8 cells” value was determined as 0.288 nM.

Another assay deals with T2, human C-C motif chemokine receptor 8 …. Put plainly: FACS (MFI-PE) on HEK293 hCCR8 cells.
A word on the EC50: it is the midpoint of the concentration-response curve. High values mean a need for much substance, low ones an effect from little substance. In the case of B3, a half-maximal response (EC50) required 0.033 nM.

B4 displayed an EC50 of 0.052 nM. Compared with the last molecule, the EC50 is about 1.6-fold higher.

In turn, B5 displayed an EC50 of 0.092 nM.

B1 registered an EC50 of 0.041 nM. This EC50 lies about 2.2-fold lower than the previous one.

The next assay shares this target. As to the kind of experiment: cell-based or functional assay. This is another data set of the same source.
In the case of B6, the “IC50, hCCL1-induced migration of BaF3 hCCR8 cells (RLU) [cont'd) C]” value (from here on “IC50, hCCL1-induced migration”) came out at 5.28 nM.

B7: the “IC50, hCCL1-induced migration” value came to 2.67 nM.

In the case of B1, the “IC50, hCCL1-induced migration” value came to 0.478 nM.

Turning to B8, the “IC50, hCCL1-induced migration” value is 0.721 nM.

For a further assay the target is unchanged. As to the kind of experiment: cell-based or functional assay. The source holds these as a separate data set.
For the molecule B3, the “IC50, hCCL1-induced beta-arrestin recruitment (RLU), CHO-K1 hCCR8 cells” value came out at 1.52 nM.

As to B4, the “IC50, hCCL1-induced beta-arrestin recruitment (RLU), CHO-K1 hCCR8 cells” value is 1.74 nM.

Consider B5, for which the “IC50, hCCL1-induced beta-arrestin recruitment (RLU), CHO-K1 hCCR8 cells” value stood at 5.25 nM.

The target in another assay is T1, human CCR4. Put plainly: FACS, CHO-K1 hCCR4 cells. How it is done: (§1) Briefly, HEK293 hCCR8 cell line, CHO-K1 cyno CCR8 cell line or CHO-K1 hCCR4 cell line was first incubated with 5-fold serially diluted and 8 doses with the above 10 chimeric Abs and hlgG1 control starting from 100 nM at 4° C. for 30 mins. After washing by FACS buffer, PE Goat anti-Human IgG Fc Secondary Antibody (eBioscience™, Invitrogen) was added to each well and incubated at 4° C. for 30 mins. Samples were washed twice with FACS buffer. The mean florescence intensity (MFI) of PE was evaluated by MACSQuant Analyzer 16.
(Flow cytometry measures light scatter and fluorescence of single cells or particles in a stream.)
With B6, the binding result is “no binding (tested: 100 nM (highest concentration tested))”.

Take B9: the binding result is recorded as “no binding (tested: 100 nM (highest concentration tested))”.

For the molecule B7, the binding result is listed as “no binding (tested: 100 nM (highest concentration tested))”.

As to B10, the binding result is listed as “no binding (tested: 100 nM (highest concentration tested))”.

For the molecule B1, the binding result is “no binding (tested: 100 nM (highest concentration tested))”.

Consider B8, for which the binding result is listed as “no binding (tested: 100 nM (highest concentration tested))”.

B11: the binding result is “no binding (tested: 100 nM (highest concentration tested))”.

A further assay addresses T3, cyno CCR8 (cynomolgus, UniProt G7NYJ2 1-355).
T3 construct: whole, on cells; also called cynomolgus CCR8 protein
As to the kind of experiment: FACS (MFI-PE) on CHO-K1 cyno CCR8 cells. How it is done: as §1
The molecule B6 came in with an EC50 of 0.0853 nM.

As for B9, a half-maximal effect (EC50) was put at 0.118 nM.

As to B7, the EC50 stood at 0.122 nM. The EC50 values of the last two molecules are within 1.5-fold of each other.

Take B10: the EC50 worked out at 0.0942 nM.

Consider B1, for which a half-maximal response (EC50) required 0.37 nM.

The molecule B11 yielded an EC50 of 0.0273 nM.

The target of a further assay is T2, human C-C motif chemokine receptor 8 …. As to the kind of experiment: FACS (MFI-PE) on HEK293 hCCR8 cells. The source holds these as a separate data set. How it is done: as §1
The molecule B6 gave an EC50 of 0.109 nM.

With B9, the EC50 turned out to be 0.117 nM. The EC50 values of the last two molecules are within 1.5-fold of each other.

The molecule B7 showed an EC50 of 0.17 nM.

The molecule B10 yielded an EC50 of 0.101 nM.

On to B1, for which the EC50 was 0.0746 nM.

B8 registered an EC50 of 0.0769 nM.

In turn, B11 registered an EC50 of 0.0473 nM.

Another assay shares this target. Put plainly: cell-based or functional assay. The source holds these as a separate data set.
With B4, the “IC50, hCCL1-induced Ca2+ flux (stimulation %), Chem-1 hCCR8 cells” value was determined as 0.21 nM.

Consider B5, for which the “IC50, hCCL1-induced Ca2+ flux (stimulation %), Chem-1 hCCR8 cells” value worked out at 0.49 nM.

Regarding B1, the “IC50, hCCL1-induced Ca2+ flux (stimulation %), Chem-1 hCCR8 cells” value turned out to be 0.33 nM.

The target is the same in the next assay. Put plainly: cell-based or functional assay. This is another data set of the same source.
For B6, the “IC50, hCCL1-induced beta-arrestin recruitment (RLU), CHO-K1 hCCR8 cells” value stood at 9.01 nM.

For the molecule B9, the “IC50, hCCL1-induced beta-arrestin recruitment (RLU), CHO-K1 hCCR8 cells” value turned out to be 96.9 nM.

As to B7, the “IC50, hCCL1-induced beta-arrestin recruitment (RLU), CHO-K1 hCCR8 cells” value is 11.2 nM.

Regarding B1, the “IC50, hCCL1-induced beta-arrestin recruitment (RLU), CHO-K1 hCCR8 cells” value came to 3.48 nM.

As for B11, the “IC50, hCCL1-induced beta-arrestin recruitment (RLU), CHO-K1 hCCR8 cells; fitted value, points scatter between about 24000 and 33000 RLU with no clear inhibition” value was determined as 0.206 nM.

For the next assay the target is unchanged. Put plainly: FACS (MFI-PE) on CHO-K1 hCCR8 cells.
As to B1, the EC50 worked out at 0.211 nM.

B12: the EC50 stood at 0.207 nM.

Another assay addresses T3, cyno CCR8. Put plainly: FACS (MFI-PE) on CHO-K1 cyno CCR8 cells. The source holds these as a separate data set.
In turn, B1 yielded an EC50 of 0.378 nM.

B12 came in with an EC50 of 14.6 nM.

On to B2, for which the EC50 came out at 0.517 nM.

A further assay deals with T2, human C-C motif chemokine receptor 8 …. Put plainly: cell-based or functional assay. The source holds these as a separate data set.
For the molecule B6, the “IC50, hCCL1-induced Ca2+ flux (stimulation %), Chem-1 hCCR8 cells [upper graph]” value was 15.2 nM.

Turning to B9, the “IC50, hCCL1-induced Ca2+ flux (stimulation %), Chem-1 hCCR8 cells [upper graph]” value amounted to 25.9 nM.

B7: the “IC50 (read off the curve), hCCL1-induced Ca2+ flux (stimulation %), Chem-1 hCCR8 cells [upper graph]” value is roughly 2 nM and the “IC50, hCCL1-induced Ca2+ flux (stimulation %), Chem-1 hCCR8 cells [lower graph]” value amounted to 12.1 nM.

As for B1, the “IC50, hCCL1-induced Ca2+ flux (stimulation %), Chem-1 hCCR8 cells [lower graph]” value is 1.62 nM.

As for B8, the “IC50, hCCL1-induced Ca2+ flux (stimulation %), Chem-1 hCCR8 cells [lower graph]” value is 1.55 nM.

With B11, the “IC50, hCCL1-induced Ca2+ flux (stimulation %), Chem-1 hCCR8 cells; fitted value, the curve stays at about 93 to 100 % beside hIgG1 [upper graph]” value was 22 nM.
